In the supplement of paper PMC5998384:

Experiments:
HeLa Kyoto [1] = assay: thermal stability score vs G1/S (z-score of summed log2 fold changes over temperatures); higher = more thermally stable than in G1/S
HeLa Kyoto [2] = assay: melting temperature (median over replicates), in situ; higher = more thermally stable
HeLa Kyoto [3] = assay: solubility in G1/S (NP-40 vs SDS abundance) (log2 ratio); higher = more soluble; details: cell cycle stage: G1/S
HeLa Kyoto [4] = assay: solubility change mitosis vs G1/S (difference of NP-40 vs SDS log2 ratios) (log2 ratio difference); higher = more soluble in mitosis
[5] = cell cycle stage: early G1 (4.5 h after nocodazole release)
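Throughout, for melting temperature (median over replicates), in situ: HeLa Kyoto cells synchronized by double thymidine or nocodazole block, proteins quantified by TMT10plex mass spectrometry, three independent biological replicates.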
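Throughout, for solubility change mitosis vs G1/S (difference of NP-40 vs SDS log2 ratios): synchronized HeLa Kyoto cells (double thymidine block for G1/S, nocodazole release for mitosis), protein amounts in NP-40 versus SDS lysates quantified by mass spectrometry, three biological replicates.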
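Throughout, for solubility in G1/S (NP-40 vs SDS abundance): HeLa Kyoto cells arrested at G1/S by double thymidine block, proteins quantified by TMT10plex mass spectrometry in mild NP-40 versus SDS extracts, three biological replicates.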
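Throughout, for thermal stability score vs G1/S (z-score of summed log2 fold changes over temperatures): synchronized HeLa Kyoto cells, proteins quantified by TMT10plex mass spectrometry, three biological replicates, mitosis taken 0.5 h after nocodazole release, G1/S directly after double thymidine block.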

Chain of ARHGAP4 (chain, as listed by the source): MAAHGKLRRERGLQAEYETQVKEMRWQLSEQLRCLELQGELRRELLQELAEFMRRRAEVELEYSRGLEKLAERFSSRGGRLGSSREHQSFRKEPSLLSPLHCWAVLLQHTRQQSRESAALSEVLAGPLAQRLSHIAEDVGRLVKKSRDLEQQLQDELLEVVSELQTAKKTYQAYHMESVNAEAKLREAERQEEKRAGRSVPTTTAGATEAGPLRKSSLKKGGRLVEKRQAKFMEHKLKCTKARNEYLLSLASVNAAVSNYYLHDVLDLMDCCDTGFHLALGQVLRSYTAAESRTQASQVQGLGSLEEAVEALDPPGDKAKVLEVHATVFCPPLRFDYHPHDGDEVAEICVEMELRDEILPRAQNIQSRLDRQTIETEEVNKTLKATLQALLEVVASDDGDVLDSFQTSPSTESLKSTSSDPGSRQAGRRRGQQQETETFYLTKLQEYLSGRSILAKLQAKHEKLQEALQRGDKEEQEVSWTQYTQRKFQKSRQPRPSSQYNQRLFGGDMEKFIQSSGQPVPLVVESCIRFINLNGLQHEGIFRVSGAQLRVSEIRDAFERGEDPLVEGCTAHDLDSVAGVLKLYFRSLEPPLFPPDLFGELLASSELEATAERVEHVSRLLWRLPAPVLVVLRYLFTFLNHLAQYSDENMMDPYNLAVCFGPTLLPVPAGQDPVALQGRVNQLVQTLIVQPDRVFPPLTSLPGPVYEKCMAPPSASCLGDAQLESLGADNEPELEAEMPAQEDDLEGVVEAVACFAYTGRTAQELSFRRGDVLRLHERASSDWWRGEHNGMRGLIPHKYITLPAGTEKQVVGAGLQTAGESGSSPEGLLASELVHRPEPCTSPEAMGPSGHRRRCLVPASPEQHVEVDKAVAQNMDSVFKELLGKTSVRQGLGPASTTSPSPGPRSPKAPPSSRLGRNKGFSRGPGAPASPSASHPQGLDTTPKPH

Substance | thermal stability score (HeLa Kyoto [1]; [5]) | thermal stability score (HeLa Kyoto [1]; cell cycle stage: mitosis) | melting temperature (HeLa Kyoto [2]; cell cycle stage: G1/S) | melting temperature (HeLa Kyoto [2]; cell cycle stage: mitosis) | solubility in G1/S (log2) (HeLa Kyoto [3]) | solubility change mitosis (log2) (HeLa Kyoto [4])
MASGEHSPGSGAARRPLHSAQAVDVASASNFRAFELLHLHLDLRAEFGPPGPGAGSRGLSGTAVLDLRCLEPEGAAELRLDSHPCLEVTAAALRRERPGSEEPPAEPVSFYTQPFSHYGQALCVSFPQPCRAAERLQVLLTYRVGEGPGVCWLAPEQTAGKKKPFVYTQGQAVLNRAFFPCFDTPAVKYKYSALIEVPDGFTAVMSASTWEKRGPNKFFFQMCQPIPSYLIALAIGDLVSAEVGPRSRVWAEPCLIDAAKEEYNGVIEEFLATGEKLFGPYVWGRYDLLFMPPSFPFGGMENPCLTFVTPCLLAGDRSLADVIIHEISHSWFGNLVTNANWGEFWLNEGFTMYAQRRISTILFGAAYTCLEAATGRALLRQHMDITGEENPLNKLRVKIEPGVDPDDTYNETPYEKGFCFVSYLAHLVGDQDQFDSFLKAYVHEFKFRSILADDFLDFYLEYFPELKKKRVDIIPGFEFDRWLNTPGWPPYLPDLSPGDSLMKPAEELAQLWAAEELDMKAIEAVAISPWKTYQLVYFLDKILQKSPLPPGNVKKLGDTYPSISNARNAELRLRWGQIVLKNDHQEDFWKVKEFLHNQGKQKYTLPLYHAMMGGSEVAQTLAKETFASTASQLHSNVVNYVQQIVAPKGS [RNPEP] | 1.06 | 1.25 | 50.1 °C | 50.3 °C | 0.182 | -0.179
MKIKDAKKPSFPWFGMDIGGTLVKLSYFEPIDITAEEEQEEVESLKSIRKYLTSNVAYGSTGIRDVHLELKDLTLFGRRGNLHFIRFPTQDLPTFIQMGRDKNFSTLQTVLCATGGGAYKFEKDFRTIGNLHLHKLDELDCLVKGLLYIDSVSFNGQAECYYFANASEPERCQKMPFNLDDPYPLLVVNIGSGVSILAVHSKDNYKRVTGTSLGGGTFLGLCSLLTGCESFEEALEMASKGDSTQADKLVRDIYGGDYERFGLPGWAVASSFGNMIYKEKRESVSKEDLARATLVTITNNIGSVARMCAVNEKINRVVFVGNFLRVNTLSMKLLAYALDYWSKGQLKALFLEHEGYFGAVGALLGLPNFS [PANK3] | -1.56 | -0.972 | 53.4 °C | 53.9 °C | -0.124 | -0.137
MAGRGGAARPNGPAAGNKICQFKLVLLGESAVGKSSLVLRFVKGQFHEYQESTIGAAFLTQTVCLDDTTVKFEIWDTAGQERYHSLAPMYYRGAQAAIVVYDITNTDTFARAKNWVKELQRQASPNIVIALAGNKADLASKRAVEFQEAQAYADDNSLLFMETSAKTAMNVNEIFMAIAKKLPKNEPQNATGAPGRNRGVDLQENNPASRSQCCSN [RAB5C] | -2.16 | -3.11 | 58.7 °C | 59.4 °C | 0.382 | -0.161
MAMARLGSWLGEAQWLALVSLFVAALATVGLYLAQWALARARPQPQRRAVEPGEGPRPGSDALLSWILTLGSWRSQWQAAWVTALNEEAERKGGPPFLSFEEDPRQQALELVVQEVSSVLRSAEEKVVVCHVVGQAIQFLVSETPALGAGCRLYDMRLSPFHLQLEFHMKEKREDLQISWSFISVPEMAVNIQPKALGEDQVAETSAMSDVLKDILKHLAGSASPSVVLITKPTTVKEAQNLQCAASTAQESCPPKPPRAHELKLLVRNIHVLLLSEPGASGHINAVCVVQLNDPVQRFSSTLTKNTPDLMWEEEFTFELNAKSKELHLQISEAGRSSEGLLATATVPLDLFKKQPSGPQSFTLTSGSACGSSVLGSVTAEFSYMEPGELKSWPIPPPVPAAKIEKDRTVMPCGTVVTTVTAVKTKPRVDVGRASPLSSDSPVKTPIKVKVIEKDISVQAIACRSAPVSKTLSSSDTELLVLNGSDPVAEVAIRQLSESSKLKLKSPRKKSTIIISGISKTSLSQDHDAALMQGYTASVDSTHQEDAPSHPERAAASAPPEEAESAQASLAPKPQEDELDSWDLEKEPQAAAWSSQVLLDPDGDELSESSMSVLEPGTAKKHKGGILRKGAKLFFRRRHQQKDPGMSQSHNDLVFLEQPEGSRRKGITLTRILNKKLLSRHRNKNTMNGAPVEPCT [C2CD2] | 0.427 | 1.24 | 50.9 °C |  | 0.0136 | 0.0576
MLKQILSEMYIDPDLLAELSEEQKQILFFKMREEQIRRWKEREAAMERKESLPVKPRPKKENGKSVHWKLGADKEVWVWVMGEHHLDKPYDVLCNEIIAERARLKAEQEAEEPRKTHSEEFTNSLKTKSQYHDLQAPDNQQTKDIWKKVAEKEELEQGSRPAPTLEEEKIRSLSSSSRNIQQMLADSINRMKAYAFHQKKESMKKKQDEEINQIEEERTKQICKSWKEDSEWQASLRKSKAADEKRRSLAKQAREDYKRLSLGAQKGRGGERLQSPLRVPQKPERPPLPPKPQFLNSGAYPQKPLRNQGVVRTLSSSAQEDIIRWFKEEQLPLRAGYQKTSDTIAPWFHGILTLKKANELLLSTGMPGSFLIRVSERIKGYALSYLSEDGCKHFLIDASADAYSFLGVDQLQHATLADLVEYHKEEPITSLGKELLLYPCGQQDQLPDYLELFE [SH2D4A] | -0.202 | 0.42 | 49 °C | 49.5 °C | 0.308 | -0.0397
MLHFNRCHHLKKITQKCFSSIHVKTDKHAQRFLSRTFALAELRKSWYSTHSLVGDKNIILMGPPGAGKTTVGRIIGQKLGCCVIDVDDDILEKTWNMSVSEKLQDVGNEQFLEEEGKAVLNFSASGSVISLTGSNPMHDASMWHLKKNGIIVYLDVPLLDLICRLKLMKTDRIVGQNSGTSMKDLLKFRRQYYKKWYDARVFCESGASPEEVADKVLNAIKRYQDVDSETFISTRHVWPEDCEQKVSAKFFSEAVIEGLASDGGLFVPAKEFPKLSCGEWKSLVGATYVERAQILLERCIHPADIPAARLGEMIETAYGENFACSKIAPVRHLSGNQFILELFHGPTGSFKDLSLQLMPHIFAHCIPPSCNYMILVATSGDTGSAVLNGFSRLNKNDKQRIAVVAFFPENGVSDFQKAQIIGSQRENGWAVGVESDFDFCQTAIKRIFNDSDFTGFLTVEYGTILSSANSINWGRLLPQVVYHASAYLDLVSQGFISFGSPVDVCIPTGNFGNILAAVYAKMMGIPIRKFICASNQNHVLTDFIKTGHYDLRERKLAQTFSPSIDILKSSNLERHLHLMANKDGQLMTELFNRLESQHHFQIEKALVEKLQQDFVADWCSEGECLAAINSTYNTSGYILDPHTAVAKVVADRVQDKTCPVIISSTAHYSKFAPAIMQALKIKEINETSSSQLYLLGSYNALPPLHEALLERTKQQEKMEYQVCAADMNVLKSHVEQLVQNQFI [THNSL1] | 0.435 | -0.697 | 52.5 °C | 52.7 °C | -0.0605 | -0.0759
ARHGAP4 | 0.224 | 0.251 | 52.5 °C | 50.3 °C | 0.0702 | -0.000167
MAPDPVAAETAAQGPTPRYFTWDEVAQRSGCEERWLVIDRKVYNISEFTRRHPGGSRVISHYAGQDATDPFVAFHINKGLVKKYMNSLLIGELSPEQPSFEPTKNKELTDEFRELRATVERMGLMKANHVFFLLYLLHILLLDGAAWLTLWVFGTSFLPFLLCAVLLSAVQAQAGWLQHDFGHLSVFSTSKWNHLLHHFVIGHLKGAPASWWNHMHFQHHAKPNCFRKDPDINMHPFFFALGKILSVELGKQKKKYMPYNHQHKYFFLIGPPALLPLYFQWYIFYFVIQRKKWVDLAWMITFYVRFFLTYVPLLGLKAFLGLFFIVRFLESNWFVWVTQMNHIPMHIDHDRNMDWVSTQLQATCNVHKSAFNDWFSGHLNFQIEHHLFPTMPRHNYHKVAPLVQSLCAKHGIEYQSKPLLSAFADIIHSLKESGQLWLDAYLHQ [FADS1] | -0.752 | -0.737 | 51.9 °C | 51.3 °C | -0.124 | -0.092
